Where two headings read alike, the source gives them in different places.
Columns and labels:
Assay in all cases: MHC II competition binding assay
[1] = target: T1, purified recombinant MHC II protein, allele DRB1*0101 (human)
T1 construct: bought from Benaroya Research Institute; also called MHC-II DR molecule

[2] = target: T2, purified recombinant MHC II protein, allele DRB1*0401 (human)
T2 construct: bought from Benaroya Research Institute; also called DR4; MHC-II DR molecule

[3] = target: T3, purified recombinant MHC II protein, allele DRB1*1301 (human)
T3 construct: bought from Benaroya Research Institute; also called MHC-II DR molecule

[4] = target: T4, purified recombinant MHC II protein, allele DRB1*1501 (human)
T4 construct: bought from Benaroya Research Institute; also called MHC-II DR molecule

[5] = target: T5, purified recombinant MHC II protein, allele DRB1*0701 (human)
T5 construct: bought from Benaroya Research Institute; also called MHC-II DR molecule

[6] = target: T6, purified recombinant MHC II protein, allele DRB1*0301 (human)
T6 construct: bought from Benaroya Research Institute; also called MHC-II DR molecule

[7] = target: T7, purified recombinant MHC II protein, allele DRB1*1101 (human)
T7 construct: bought from Benaroya Research Institute; also called MHC-II DR molecule

[8] = target: T8, purified recombinant MHC II protein, allele DRB1*0801 (human)
T8 construct: bought from Benaroya Research Institute; also called MHC-II DR molecule

[9] = target: T1, purified recombinant MHC II protein, …; remark: listed apart in the source
[10] = target: T3, purified recombinant MHC II protein, …; remark: listed apart in the source
[11] = target: T4, purified recombinant MHC II protein, …; remark: listed apart in the source
[12] = target: T7, purified recombinant MHC II protein, …; remark: listed apart in the source
[13] = target: T8, purified recombinant MHC II protein, …; remark: listed apart in the source
[14] = target: T1, purified recombinant MHC II protein, …; remark: listed apart in the source
[15] = target: T2, purified recombinant MHC II protein, …; remark: listed apart in the source
[16] = target: T4, purified recombinant MHC II protein, …; remark: listed apart in the source
[17] = target: T5, purified recombinant MHC II protein, …; remark: listed apart in the source
[18] = target: T7, purified recombinant MHC II protein, …; remark: listed apart in the source
[19] = target: T1, purified recombinant MHC II protein, …; remark: listed apart in the source
[20] = target: T2, purified recombinant MHC II protein, …; remark: listed apart in the source
[21] = target: T3, purified recombinant MHC II protein, …; remark: listed apart in the source
[22] = target: T4, purified recombinant MHC II protein, …; remark: listed apart in the source
[23] = target: T5, purified recombinant MHC II protein, …; remark: listed apart in the source
[24] = target: T6, purified recombinant MHC II protein, …; remark: listed apart in the source
[25] = target: T7, purified recombinant MHC II protein, …; remark: listed apart in the source
[26] = target: T1, purified recombinant MHC II protein, …; remark: listed apart in the source
[27] = target: T8, purified recombinant MHC II protein, …; remark: listed apart in the source
[28] = target: T1, purified recombinant MHC II protein, …; remark: listed apart in the source
[29] = target: T2, purified recombinant MHC II protein, …; remark: listed apart in the source
[30] = target: T3, purified recombinant MHC II protein, …; remark: listed apart in the source
[31] = target: T4, purified recombinant MHC II protein, …; remark: listed apart in the source
[32] = target: T5, purified recombinant MHC II protein, …; remark: listed apart in the source
[33] = target: T6, purified recombinant MHC II protein, …; remark: listed apart in the source
[34] = target: T7, purified recombinant MHC II protein, …; remark: listed apart in the source
[35] = target: T8, purified recombinant MHC II protein, …; remark: listed apart in the source
[36] = target: T5, purified recombinant MHC II protein, …; remark: listed apart in the source
[37] = target: T7, purified recombinant MHC II protein, …; remark: listed apart in the source
[38] = target: T8, purified recombinant MHC II protein, …; remark: listed apart in the source

Which results are given for DYVKAGQIIGWSGSTGY [cluster 4 wild-type (C4WT) epitope peptide]?
IC50 [1]: < 0.01 µM; IC50 [2]: < 0.01 µM; IC50 [3]: 78.5 µM; IC50 [4]: < 0.01 µM; IC50 [5]: 92.9 µM; IC50 [6]: 31.4 µM; IC50 [7]: 1.69 µM; IC50 [8]: 62.5 µM

B1: cluster 4 peptide with Ile99Gln (peptide)
peptide: DYVKAGQQIGWSGSTGY
notes: synthetic mutated peptide of the lysostaphin catalytic domain; also called I99Q
Which results are given for B1?
IC50 [1]: 31.7 µM; IC50 [2]: 6.16 µM; IC50 [4]: 66.1 µM; IC50 [5]: 93.1 µM; IC50 [7]: 24.3 µM

B2: cluster 4 peptide with Lys95Glu (peptide)
peptide: DYVEAGQIIGWSGSTGY
notes: synthetic mutated peptide of the lysostaphin catalytic domain; also called K95E
Which results are given for B2?
IC50 [1]: < 0.01 µM; IC50 [2]: < 0.01 µM; IC50 [3]: 25.7 µM; IC50 [4]: < 0.01 µM; IC50 [5]: 4.81 µM; IC50 [6]: 1.9 µM; IC50 [7]: 6.32 µM; IC50 [8]: 12.2 µM

B3: cluster 4 peptide with Lys95Glu/Ile99Gln (peptide)
peptide: DYVEAGQQIGWSGSTGY
notes: synthetic mutated peptide of the lysostaphin catalytic domain; also called 95-99
With B3 as the binder, how does the IC50 [1] read?
The IC50 was under 0.01 µM.

What about the IC50 [2] of the same binder?
Its IC50 is 25.8 µM.

What about the IC50 [4] of the same binder?
Its IC50 is under 0.01 µM.

What about the IC50 [5] of the same binder?
Its IC50 is 104 µM.

And the IC50 [7]?
Its IC50 is 25.4 µM.

B4: cluster 4 peptide with Tyr93His (peptide)
peptide: DHVKAGQIIGWSGSTGY
notes: synthetic mutated peptide of the lysostaphin catalytic domain; also called Y93H
What does the source list for B4?
IC50 [1]: 103 µM; IC50 [4]: < 0.01 µM; IC50 [5]: 182 µM

B5: cluster 4 peptide with Tyr93His/Ile99Gln (peptide)
peptide: DHVKAGQQIGWSGSTGY
notes: synthetic mutated peptide of the lysostaphin catalytic domain; also called 93_99
With B5 as the binder, how does the IC50 [1] read?
Its IC50 is under 0.01 µM.

What about the IC50 [2] of the same binder?
Its IC50 is under 0.01 µM.

What about the IC50 [4] of the same binder?
The IC50 was under 0.01 µM.

What about the IC50 [5] of the same binder?
Its IC50 is 60.5 µM.

B6: cluster 4 peptide with Tyr93His/Lys95Glu (peptide)
peptide: DHVEAGQIIGWSGSTGY
notes: synthetic mutated peptide of the lysostaphin catalytic domain; also called 93_95
With B6 as the binder, how does the IC50 [1] read?
Its IC50 is 9.98 µM.

And the IC50 [2]?
Its IC50 is 25.5 µM.

What about the IC50 [3] of the same binder?
Its IC50 is 18.9 µM.

And the IC50 [4]?
The IC50 was 0.06 µM.

What about the IC50 [5] of the same binder?
Its IC50 is 24.9 µM.

And the IC50 [6]?
The IC50 was 110 µM.

And the IC50 [7]?
Its IC50 is 25 µM.

And the IC50 [8]?
The IC50 was 30.9 µM.

B7: cluster 4 peptide with Tyr93His/Lys95Glu/Ile99Gln (peptide)
peptide: DHVEAGQQIGWSGSTGY
notes: synthetic mutated peptide of the lysostaphin catalytic domain; also called 939599
How did the IC50 [5] turn out when B7 was run?
Its IC50 is 179 µM.

Which IC50 [9] does the source give for SAQWLNNYKKGYGYG [cluster 1 wild-type (C1WT) epitope peptide] here?
The IC50 was 215 µM.

What about the IC50 [10] of the same binder?
The IC50 was 137 µM.

And the IC50 [11]?
The IC50 was 102 µM.

And the IC50 [12]?
Its IC50 is 0.94 µM.

And the IC50 [13]?
Its IC50 is 13.7 µM.

B8: cluster 1 peptide with Asn12Gly (peptide)
peptide: SAQWLGNYKKGYGYG
notes: synthetic mutated peptide of the lysostaphin catalytic domain
Which IC50 [9] does the source give for B8 here?
The IC50 was under 0.01 µM.

And the IC50 [12]?
Its IC50 is 5.16 µM.

And the IC50 [13]?
Its IC50 is 58.6 µM.

B9: cluster 1 peptide with Asn13His (peptide)
peptide: SAQWLNHYKKGYGYG
notes: as for B8
With B9 as the binder, how does the IC50 [10] read?
The IC50 was 41.6 µM.

What about the IC50 [12] of the same binder?
The IC50 was 4.13 µM.

B10: cluster 5 peptide with Ser124Gly (peptide)
peptide: HLHFQRMVNSFGNPTAQ
notes: synthetic mutated peptide of the lysostaphin catalytic domain; also called S124G
Which results are given for B10?
IC50 [14]: < 0.01 µM; IC50 [15]: 0.04 µM; IC50 [16]: < 0.01 µM; IC50 [17]: 151 µM; IC50 [18]: 0.3 µM

For GVDFFMNIGTPVKAISSGKIV [cluster 2 wild-type (C2WT) epitope peptide], which IC50 [19] is on record?
The IC50 was 0.22 µM.

What about the IC50 [20] of the same binder?
Its IC50 is 13.7 µM.

What about the IC50 [21] of the same binder?
Its IC50 is 104 µM.

What about the IC50 [22] of the same binder?
Its IC50 is 2.37 µM.

And the IC50 [23]?
The IC50 was 8.19 µM.

And the IC50 [24]?
Its IC50 is 60.1 µM.

And the IC50 [25]?
Its IC50 is 10.1 µM.

B11: cluster 2 peptide with Ile41Glu (peptide)
peptide: GVDFFMNEGTPVKAISSGKIV
notes: synthetic mutated peptide of the lysostaphin catalytic domain; also called I41E
How did the IC50 [19] turn out when B11 was run?
Its IC50 is 0.59 µM.

What about the IC50 [20] of the same binder?
The IC50 was 3.48 µM.

And the IC50 [21]?
Its IC50 is 143 µM.

And the IC50 [22]?
The IC50 was 7.44 µM.

What about the IC50 [23] of the same binder?
Its IC50 is 7.51 µM.

What about the IC50 [25] of the same binder?
Its IC50 is 146 µM.

B12: cluster 2 peptide with Ile41Glu/Lys46His (peptide)
peptide: GVDFFMNEGTPVHAISSGKIV
notes: synthetic mutated peptide of the lysostaphin catalytic domain; also called 41_46
B12 was tested. Which IC50 [19] did it give?
Its IC50 is under 0.01 µM.

What about the IC50 [20] of the same binder?
The IC50 was under 0.01 µM.

And the IC50 [22]?
Its IC50 is under 0.01 µM.

What about the IC50 [23] of the same binder?
Its IC50 is 14.3 µM.

And the IC50 [25]?
The IC50 was under 0.01 µM.

B13: cluster 2 peptide with Lys46His (peptide)
peptide: GVDFFMNIGTPVHAISSGKIV
notes: synthetic mutated peptide of the lysostaphin catalytic domain; also called K46H
With B13 as the binder, how does the “fold decrease in binding against C2WT” value [26] read?
Its value is 2 fold.

And the IC50 [19]?
The IC50 was 0.49 µM.

What about the IC50 [20] of the same binder?
The IC50 was 1.65 µM.

And the IC50 [21]?
Its IC50 is 212 µM.

What about the IC50 [22] of the same binder?
The IC50 was 2.55 µM.

What about the IC50 [23] of the same binder?
Its IC50 is 4.46 µM.

And the IC50 [24]?
The IC50 was 152 µM.

What about the IC50 [25] of the same binder?
Its IC50 is 18.3 µM.

What about the IC50 [27] of the same binder?
Its IC50 is 87.5 µM.

Which IC50 [28] does the source give for GVHRQWYMHLSKYNVKVGD [cluster 3 wild-type (C3WT) epitope peptide] here?
Its IC50 is under 0.01 µM.

And the IC50 [29]?
The IC50 was 38.1 µM.

And the IC50 [30]?
Its IC50 is 54.7 µM.

And the IC50 [31]?
The IC50 was 9.51 µM.

What about the IC50 [32] of the same binder?
The IC50 was 0.41 µM.

What about the IC50 [33] of the same binder?
The IC50 was 155 µM.

What about the IC50 [34] of the same binder?
The IC50 was under 0.01 µM.

What about the IC50 [35] of the same binder?
The IC50 was 0.14 µM.

B14: cluster 3 peptide with Leu83Met (peptide)
peptide: GVHRQWYMHMSKYNVKVGD
notes: synthetic mutated peptide of the lysostaphin catalytic domain; also called L83M
What does the source list for B14?
fold decrease in binding against C3WT [26]: 2000 fold; fold decrease in binding against C3WT [36]: > 2 fold; fold decrease in binding against C3WT [37]: 10 fold; fold decrease in binding against C3WT [38]: ~5 fold; IC50 [28]: 32.4 µM; IC50 [30]: 27.4 µM; IC50 [31]: 4.42 µM; IC50 [32]: 2.09 µM; IC50 [33]: 115 µM; IC50 [34]: 0.11 µM; IC50 [35]: 0.37 µM

— patent publication US20210395713A1 (TRUSTEES OF DARTMOUTH COLLEGE, published 2021)
